From IntAct's records for PubMed 25416956

B1: Keratin, type II cytoskeletal 2 epidermal (Homo sapiens), P35908 (parent)
chain: MSCQISCKSRGRGGGGGGFRGFSSGSAVVSGGSRRSTSSFSCLSRHGGGGGGFGGGGFGSRSLVGLGGTKSISISVAGGGGGFGAAGGFGGRGGGFGGGSSFGGGSGFSGGGFGGGGFGGGRFGGFGGPGGVGGLGGPGGFGPGGYPGGIHEVSVNQSLLQPLNVKVDPEIQNVKAQEREQIKTLNNKFASFIDKVRFLEQQNQVLQTKWELLQQMNVGTRPINLEPIFQGYIDSLKRYLDGLTAERTSQNSELNNMQDLVEDYKKKYEDEINKRTAAENDFVTLKKDVDNAYMIKVELQSKVDLLNQEIEFLKVLYDAEISQIHQSVTDTNVILSMDNSRNLDLDSIIAEVKAQYEEIAQRSKEEAEALYHSKYEELQVTVGRHGDSLKEIKIEISELNRVIQRLQGEIAHVKKQCKNVQDAIADAEQRGEHALKDARNKLNDLEEALQQAKEDLARLLRDYQELMNVKLALDVEIATYRKLLEGEECRMSGDLSSNVTVSVTSSTISSNVASKAAFGGSGGRGSSSGGGYSSGSSSYGSGGRQSGSRGGSGGGGSISGGGYGSGGGSGGRYGSGGGSKGGSISGGGYGSGGGKHSSGGGSRGGSSSGGGYGSGGGGSSSVKGSSGEAFGSSVTFSFR
partner: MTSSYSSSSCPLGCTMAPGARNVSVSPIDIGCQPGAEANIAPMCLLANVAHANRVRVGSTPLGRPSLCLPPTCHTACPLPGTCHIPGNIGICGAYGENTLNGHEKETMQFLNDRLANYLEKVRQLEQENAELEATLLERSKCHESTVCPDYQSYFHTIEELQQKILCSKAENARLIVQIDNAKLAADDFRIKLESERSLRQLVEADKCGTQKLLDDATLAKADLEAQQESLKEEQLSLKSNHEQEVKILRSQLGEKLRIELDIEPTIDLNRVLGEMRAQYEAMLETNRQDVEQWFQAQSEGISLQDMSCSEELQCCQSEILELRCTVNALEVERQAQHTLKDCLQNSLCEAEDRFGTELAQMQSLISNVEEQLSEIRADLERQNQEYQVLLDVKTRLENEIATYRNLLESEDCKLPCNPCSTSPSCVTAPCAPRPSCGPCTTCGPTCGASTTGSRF
B2: Keratin, type II cytoskeletal 6A (Homo sapiens), P02538 (parent)
chain: MASTSTTIRSHSSSRRGFSANSARLPGVSRSGFSSVSVSRSRGSGGLGGACGGAGFGSRSLYGLGGSKRISIGGGSCAISGGYGSRAGGSYGFGGAGSGFGFGGGAGIGFGLGGGAGLAGGFGGPGFPVCPPGGIQEVTVNQSLLTPLNLQIDPTIQRVRAEEREQIKTLNNKFASFIDKVRFLEQQNKVLETKWTLLQEQGTKTVRQNLEPLFEQYINNLRRQLDSIVGERGRLDSELRGMQDLVEDFKNKYEDEINKRTAAENEFVTLKKDVDAAYMNKVELQAKADTLTDEINFLRALYDAELSQMQTHISDTSVVLSMDNNRNLDLDSIIAEVKAQYEEIAQRSRAEAESWYQTKYEELQVTAGRHGDDLRNTKQEIAEINRMIQRLRSEIDHVKKQCANLQAAIADAEQRGEMALKDAKNKLEGLEDALQKAKQDLARLLKEYQELMNVKLALDVEIATYRKLLEGEECRLNGEGVGQVNISVVQSTVSSGYGGASGVGSGLGLGGGSSYSYGSGLGVGGGFSSSSGRAIGGGLSSVGGGSSTIKYTTTSSSSRKSYKH
partner: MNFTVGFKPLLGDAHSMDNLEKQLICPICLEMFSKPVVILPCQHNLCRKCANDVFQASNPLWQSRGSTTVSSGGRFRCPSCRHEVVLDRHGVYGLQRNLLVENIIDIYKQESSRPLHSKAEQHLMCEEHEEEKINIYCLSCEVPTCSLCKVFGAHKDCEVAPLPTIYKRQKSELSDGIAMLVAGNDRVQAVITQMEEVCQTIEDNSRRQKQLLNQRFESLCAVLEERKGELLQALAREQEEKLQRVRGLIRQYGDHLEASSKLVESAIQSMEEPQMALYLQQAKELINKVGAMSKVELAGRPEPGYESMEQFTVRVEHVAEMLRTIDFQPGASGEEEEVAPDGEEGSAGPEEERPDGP
B3: Lipopolysaccharide-induced tumor necrosis factor-alpha factor (Homo sapiens), Q99732 (parent)
chain: MSVPGPYQAATGPSSAPSAPPSYEETVAVNSYYPTPPAPMPGPTTGLVTGPDGKGMNPPSYYTQPAPIPNNNPITVQTVYVQHPITFLDRPIQMCCPSCNKMIVSQLSYNAGALTWLSCGSLCLLGCIAGCCFIPFCVDALQDVDHYCPNCRALLGTYKRL
B4: Keratin, type II cytoskeletal 2 epidermal (Homo sapiens), P35908 (parent)
chain: B1 chain
B5: Plakophilin-2 (Homo sapiens), Q99959 (parent)
chain: MAAPGAPAEYGYIRTVLGQQILGQLDSSSLALPSEAKLKLAGSSGRGGQTVKSLRIQEQVQQTLARKGRSSVGNGNLHRTSSVPEYVYNLHLVENDFVGGRSPVPKTYDMLKAGTTATYEGRWGRGTAQYSSQKSVEERSLRHPLRRLEISPDSSPERAHYTHSDYQYSQRSQAGHTLHHQESRRAALLVPPRYARSEIVGVSRAGTTSRQRHFDTYHRQYQHGSVSDTVFDSIPANPALLTYPRPGTSRSMGNLLEKENYLTAGLTVGQVRPLVPLQPVTQNRASRSSWHQSSFHSTRTLREAGPSVAVDSSGRRAHLTVGQAAAGGSGNLLTERSTFTDSQLGNADMEMTLERAVSMLEADHMLPSRISAAATFIQHECFQKSEARKRVNQLRGILKLLQLLKVQNEDVQRAVCGALRNLVFEDNDNKLEVAELNGVPRLLQVLKQTRDLETKKQITDHTVNLRSRNGWPGAVAHACNPSTLGGQGGRITRSGVRDQPDQHGLLWNLSSNDKLKNLMITEALLTLTENIIIPFSGWPEGDYPKANGLLDFDIFYNVTGCLRNMSSAGADGRKAMRRCDGLIDSLVHYVRGTIADYQPDDKATENCVCILHNLSYQLEAELPEKYSQNIYIQNRNIQTDNNKSIGCFGSRSRKVKEQYQDVPMPEEKSNPKGVEWLWHSIVIRMYLSLIAKSVRNYTQEASLGALQNLTAGSGPMPTSVAQTVVQKESGLQHTRKMLHVGDPSVKKTAISLLRNLSRNLSLQNEIAKETLPDLVSIIPDTVPSTDLLIETTASACYTLNNIIQNSYQNARDLLNTGGIQKIMAISAGDAYASNKASKAASVLLYSLWAHTELHHAYKKAQFKKTDFVNSRTAKAYHSLKD
partner: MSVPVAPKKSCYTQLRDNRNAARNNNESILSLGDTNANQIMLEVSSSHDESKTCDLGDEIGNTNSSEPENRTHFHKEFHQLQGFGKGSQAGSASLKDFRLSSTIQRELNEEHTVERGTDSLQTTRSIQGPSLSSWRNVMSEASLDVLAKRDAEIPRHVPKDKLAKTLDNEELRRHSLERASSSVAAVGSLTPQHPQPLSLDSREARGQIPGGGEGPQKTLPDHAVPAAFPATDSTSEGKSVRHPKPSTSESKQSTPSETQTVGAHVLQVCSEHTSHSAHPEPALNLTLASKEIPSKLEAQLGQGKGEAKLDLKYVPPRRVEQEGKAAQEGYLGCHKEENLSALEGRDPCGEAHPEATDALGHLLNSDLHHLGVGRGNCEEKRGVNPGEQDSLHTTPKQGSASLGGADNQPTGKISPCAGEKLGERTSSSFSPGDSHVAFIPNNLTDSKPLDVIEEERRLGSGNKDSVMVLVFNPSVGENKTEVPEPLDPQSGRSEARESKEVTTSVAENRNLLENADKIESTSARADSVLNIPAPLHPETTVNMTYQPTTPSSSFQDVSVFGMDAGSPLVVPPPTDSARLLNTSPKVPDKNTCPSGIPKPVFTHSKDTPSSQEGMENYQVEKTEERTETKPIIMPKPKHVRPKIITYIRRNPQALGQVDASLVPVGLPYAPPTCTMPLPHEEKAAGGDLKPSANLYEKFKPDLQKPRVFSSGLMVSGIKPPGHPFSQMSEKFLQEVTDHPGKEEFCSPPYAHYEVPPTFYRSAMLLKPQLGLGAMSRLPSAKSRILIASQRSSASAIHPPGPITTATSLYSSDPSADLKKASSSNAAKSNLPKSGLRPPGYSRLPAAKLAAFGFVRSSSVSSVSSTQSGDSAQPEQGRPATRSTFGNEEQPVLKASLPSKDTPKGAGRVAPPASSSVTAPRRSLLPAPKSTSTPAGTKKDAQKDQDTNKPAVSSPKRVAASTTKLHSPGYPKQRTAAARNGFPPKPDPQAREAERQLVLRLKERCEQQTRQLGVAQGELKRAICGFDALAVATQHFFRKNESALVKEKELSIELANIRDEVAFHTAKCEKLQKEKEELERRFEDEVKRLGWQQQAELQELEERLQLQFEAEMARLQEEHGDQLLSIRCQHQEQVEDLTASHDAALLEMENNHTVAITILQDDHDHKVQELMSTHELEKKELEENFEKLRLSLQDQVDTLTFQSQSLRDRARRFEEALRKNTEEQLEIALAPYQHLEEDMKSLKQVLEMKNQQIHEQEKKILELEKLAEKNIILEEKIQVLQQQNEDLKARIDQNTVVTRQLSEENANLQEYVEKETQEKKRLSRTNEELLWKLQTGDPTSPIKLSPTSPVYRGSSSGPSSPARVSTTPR
B6: Tumor necrosis factor receptor superfamily member 13B (Homo sapiens), O14836 (parent)
chain: MSGLGRSRRGGRSRVDQEERFPQGLWTGVAMRSCPEEQYWDPLLGTCMSCKTICNHQSQRTCAAFCRSLSCRKEQGKFYDHLLRDCISCASICGQHPKQCAYFCENKLRSPVNLPPELRRQRSGEVENNSDNSGRYQGLEHRGSEASPALPGLKLSADQVALVYSTLGLCLCAVLCCFLVAVACFLKKRGDPCSCQPRSRPRQSPAKSSQDHAMEAGSPVSTSPEPVETCSFCFPECRAPTQESAVTPGTPDPTCAGRWGCHTRTTVLQPCPHIPDSGLGIVCVPAQEGGPGA
B7: EF-hand domain-containing protein 1 (Homo sapiens), Q5JVL4 (parent)
chain: MVSNPVHGLPFLPGTSFKDSTKTAFHRSQTLSYRNGYAIVRRPTVGIGGDRLQFNQLSQAELDELASKAPVLTYGQPKQAPPADFIPAHVAFDKKVLKFDAYFQEDVPMSTEEQYRIRQVNIYYYLEDDSMSVIEPVVENSGILQGKLIKRQRLAKNDRGDHYHWKDLNRGINITIYGKTFRVVDCDQFTQVFLESQGIELNPPEKMALDPYTELRKQPLRKYVTPSDFDQLKQFLTFDKQVLRFYAIWDDTDSMYGECRTYIIHYYLMDDTVEIREVHERNDGRDPFPLLMNRQRVPKVLVENAKNFPQCVLEISDQEVLEWYTAKDFIVGKSLTILGRTFFIYDCDPFTRRYYKEKFGITDLPRIDVSKREPPPVKQELPPYNGFGLVEDSAQNCFALIPKAPKKDVIKMLVNDNKVLRYLAVLESPIPEDKDRRFVFSYFLATDMISIFEPPVRNSGIIGGKYLGRTKVVKPYSTVDNPVYYGPSDFFIGAVIEVFGHRFIILDTDEYVLKYMESNAAQYSPEALASIQNHVRKREAPAPEAESKQTEKDPGVQELEALIDTIQKQLKDHSCKDNIREAFQIYDKEASGYVDRDMFFKICESLNVPVDDSLVKELIRMCSHGEGKINYYNFVRAFSN

Variants of: B1
Conditions: with krt38_human KRT38, O76015

effect of a mutation on the interaction | Variant
disrupting interaction | I477N

Variants of: B2
Conditions: with tri54_human TRIM54, Q9BYV2

effect of a mutation on the interaction | Variant
disrupting interaction | A463P

Variants of: B3
Conditions: with hgs_human HGS

effect of a mutation on the interaction | Variant
disrupting interaction | A111G

Variants of: B3
Conditions: with stam2_human STAM2, O75886

effect of a mutation on the interaction | Variant
disrupting interaction | A111G

Variants of: B3
Conditions: with reep6_human REEP6, Q96HR9
Chain of reep6_human REEP6, Q96HR9 (Q96HR9 whole entry): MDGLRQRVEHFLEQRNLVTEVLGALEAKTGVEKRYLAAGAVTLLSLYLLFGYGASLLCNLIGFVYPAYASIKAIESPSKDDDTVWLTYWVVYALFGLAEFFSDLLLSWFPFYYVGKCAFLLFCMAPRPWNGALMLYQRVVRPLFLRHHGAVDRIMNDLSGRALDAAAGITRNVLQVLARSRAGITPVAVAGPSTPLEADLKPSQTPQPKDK

effect of a mutation on the interaction | Variant
disrupting interaction | A111G

Variants of: B3
Conditions: with UBQLN1, Q9UMX0-2
Chain of UBQLN1, Q9UMX0-2 (Q9UMX0 other isoform, or with tags, fused parts or gaps): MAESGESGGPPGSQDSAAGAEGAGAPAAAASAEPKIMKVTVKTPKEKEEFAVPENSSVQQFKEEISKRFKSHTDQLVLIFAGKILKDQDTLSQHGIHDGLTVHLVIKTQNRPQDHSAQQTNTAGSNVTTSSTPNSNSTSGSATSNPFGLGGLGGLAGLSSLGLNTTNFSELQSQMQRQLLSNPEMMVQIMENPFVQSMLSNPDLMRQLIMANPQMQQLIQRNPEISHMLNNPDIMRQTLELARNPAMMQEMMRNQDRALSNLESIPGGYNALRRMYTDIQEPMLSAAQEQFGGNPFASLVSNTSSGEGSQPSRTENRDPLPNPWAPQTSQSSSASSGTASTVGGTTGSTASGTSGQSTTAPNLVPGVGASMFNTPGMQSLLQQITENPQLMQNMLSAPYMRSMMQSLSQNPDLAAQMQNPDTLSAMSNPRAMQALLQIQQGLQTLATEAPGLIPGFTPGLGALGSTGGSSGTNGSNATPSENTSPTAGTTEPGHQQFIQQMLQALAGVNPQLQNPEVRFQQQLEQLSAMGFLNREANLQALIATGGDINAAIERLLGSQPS

effect of a mutation on the interaction | Variant
disrupting interaction | A111G

Variants of: B3
Conditions: with ubql1_human UBQLN1, Q9UMX0
Chain of ubql1_human UBQLN1, Q9UMX0 (Q9UMX0 whole entry): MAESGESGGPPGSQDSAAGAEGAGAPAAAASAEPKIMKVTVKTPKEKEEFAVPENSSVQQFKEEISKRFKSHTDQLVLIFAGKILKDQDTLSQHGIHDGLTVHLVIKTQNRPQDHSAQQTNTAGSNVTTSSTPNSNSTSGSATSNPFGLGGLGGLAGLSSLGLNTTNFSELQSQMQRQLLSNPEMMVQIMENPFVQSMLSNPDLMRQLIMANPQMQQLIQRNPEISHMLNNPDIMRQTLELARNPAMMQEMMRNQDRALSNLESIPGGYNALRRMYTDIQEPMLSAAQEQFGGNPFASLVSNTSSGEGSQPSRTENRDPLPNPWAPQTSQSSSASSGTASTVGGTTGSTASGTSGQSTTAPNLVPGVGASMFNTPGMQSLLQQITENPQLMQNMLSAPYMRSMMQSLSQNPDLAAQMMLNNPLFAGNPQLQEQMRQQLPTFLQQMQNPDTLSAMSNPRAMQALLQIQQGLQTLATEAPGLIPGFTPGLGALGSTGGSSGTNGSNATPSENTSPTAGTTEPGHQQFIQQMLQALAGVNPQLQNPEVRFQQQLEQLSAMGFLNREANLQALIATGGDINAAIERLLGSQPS

effect of a mutation on the interaction | Variant
disrupting interaction | A111G

Variants of: B3
Conditions: with hgs_human HGS
Remark: another data set of the same source

effect of a mutation on the interaction | Variant
disrupting interaction | G112S

Variants of: B3
Conditions: with stam2_human STAM2, O75886
Remark: another data set of the same source

effect of a mutation on the interaction | Variant
disrupting interaction | G112S

Variants of: B3
Conditions: with reep6_human REEP6, Q96HR9
Remark: another data set of the same source

effect of a mutation on the interaction | Variant
disrupting interaction | G112S

Variants of: B3
Conditions: with UBQLN1, Q9UMX0-2
Remark: another data set of the same source

effect of a mutation on the interaction | Variant
disrupting interaction | G112S

Variants of: B3
Conditions: with ubql1_human UBQLN1, Q9UMX0
Remark: another data set of the same source

effect of a mutation on the interaction | Variant
disrupting interaction | G112S

Variants of: B4
Conditions: with KRT19, P08727
Chain of KRT19, P08727 (P08727 whole entry): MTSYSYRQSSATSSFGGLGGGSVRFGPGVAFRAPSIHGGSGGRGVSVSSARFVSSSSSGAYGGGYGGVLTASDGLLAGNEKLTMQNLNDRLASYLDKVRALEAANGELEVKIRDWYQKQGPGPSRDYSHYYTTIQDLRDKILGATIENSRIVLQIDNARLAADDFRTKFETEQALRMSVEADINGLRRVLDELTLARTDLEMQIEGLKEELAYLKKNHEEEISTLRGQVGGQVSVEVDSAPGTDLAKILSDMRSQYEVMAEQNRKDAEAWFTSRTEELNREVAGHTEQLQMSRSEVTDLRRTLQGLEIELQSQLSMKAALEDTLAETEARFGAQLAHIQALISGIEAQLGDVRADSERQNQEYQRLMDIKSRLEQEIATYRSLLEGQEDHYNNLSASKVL

effect of a mutation on the interaction | Variant
disrupting interaction | I477N

Variants of: B5
Conditions: with mtus2_human MTUS2, Q5JR59

effect of a mutation on the interaction | Variant
disrupting interaction | S644P

Variants of: B5
Conditions: with mtus2_human MTUS2, Q5JR59
Remark: another data set of the same source

effect of a mutation on the interaction | Variant
disrupting interaction | S140F

Variants of: B6
Conditions: with sgta_human SGTA

effect of a mutation on the interaction | Variant
disrupting interaction | E125R

Variants of: B7
Conditions: with itf2_human TCF4, P15884
Chain of itf2_human TCF4, P15884 (P15884 whole entry): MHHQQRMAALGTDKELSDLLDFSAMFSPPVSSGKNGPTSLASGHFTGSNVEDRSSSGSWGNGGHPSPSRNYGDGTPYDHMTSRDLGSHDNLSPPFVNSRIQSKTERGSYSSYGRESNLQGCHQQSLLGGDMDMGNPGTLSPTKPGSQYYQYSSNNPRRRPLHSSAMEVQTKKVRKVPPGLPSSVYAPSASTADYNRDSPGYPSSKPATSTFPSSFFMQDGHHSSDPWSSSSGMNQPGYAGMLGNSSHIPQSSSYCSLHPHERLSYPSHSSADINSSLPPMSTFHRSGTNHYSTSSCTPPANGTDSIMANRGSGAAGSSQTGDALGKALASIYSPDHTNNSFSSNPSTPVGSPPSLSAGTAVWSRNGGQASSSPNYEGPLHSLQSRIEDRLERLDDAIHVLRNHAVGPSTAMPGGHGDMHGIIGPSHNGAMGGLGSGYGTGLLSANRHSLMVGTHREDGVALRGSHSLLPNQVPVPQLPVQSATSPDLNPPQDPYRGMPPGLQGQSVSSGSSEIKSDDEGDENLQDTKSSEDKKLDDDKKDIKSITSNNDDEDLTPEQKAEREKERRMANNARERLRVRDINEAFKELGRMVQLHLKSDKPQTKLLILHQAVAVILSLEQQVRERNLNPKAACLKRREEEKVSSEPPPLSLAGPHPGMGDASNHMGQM

effect of a mutation on the interaction | Variant
disrupting interaction | A394S

Variants of: B7
Conditions: with ikzf3_human IKZF3, Q9UKT9
Chain of ikzf3_human IKZF3, Q9UKT9 (Q9UKT9 whole entry): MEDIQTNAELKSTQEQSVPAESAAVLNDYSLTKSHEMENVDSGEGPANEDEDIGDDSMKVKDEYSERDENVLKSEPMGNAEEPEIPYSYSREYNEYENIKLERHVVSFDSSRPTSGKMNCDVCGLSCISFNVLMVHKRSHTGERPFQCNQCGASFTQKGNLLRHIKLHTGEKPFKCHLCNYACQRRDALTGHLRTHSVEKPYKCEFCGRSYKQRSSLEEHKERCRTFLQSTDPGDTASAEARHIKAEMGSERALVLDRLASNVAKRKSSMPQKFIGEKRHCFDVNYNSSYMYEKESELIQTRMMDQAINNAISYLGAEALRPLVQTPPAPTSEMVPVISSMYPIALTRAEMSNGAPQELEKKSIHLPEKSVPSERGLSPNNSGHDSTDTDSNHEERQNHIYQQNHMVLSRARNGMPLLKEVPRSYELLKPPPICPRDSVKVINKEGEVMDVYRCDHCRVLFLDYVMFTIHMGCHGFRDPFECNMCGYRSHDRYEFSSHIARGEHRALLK

effect of a mutation on the interaction | Variant
disrupting interaction | A394S
